Laboratory results: PMC11480844

B1: H2-Kb / E9 (parent)
chain 1: QQKVQQSPESLTVSEGAMASLNCTFSDRSSDNFRWYRQHSGKGLEVLVSIFSDGEKEEGSFTAHLNRASLHVFLHIREPQPSDSALYLCAVSRSSGSWQLIFGSGTQLTVMP
chain 2: NSGVVQSPRYIIKGKGERSILKCIPISGHLSVAWYQQTQGQELKFFIQHYDKMERDKGNLPSRFSVQQFDDYHSEMNMSALELEDSAVYFCASSRDSNNQAPLFGEGTRLSVL
chain 3: not shown
chain 4: IQKTPQIQVYSRHPPENGKPNILNCYVTQFHPPHIEIQMLKNGKKIPKVEMSDMSFSKDWSFYILAHTEFTPTETDTYACRVKHDSMAEPKTVYWDRDM
chain 5: SIINFEKL
B2: H2-Kb / B13 (parent)
chain 1: AQKVTQTQTSISVMEKTTVTMDCVYETQDSSYFLFWYKQTASGEIVFLIRQDSYKKENATVGHYSLNFQKPKSSIGLIITATQIEDSAVYFCAMREGTGGYKVVFGSGTRLLVSP
chain 2: EAAVTQSPRNKVTVTGGNVTLSCRQTNSHNYMYWYRQDTGHGLRLIHYSYGAGNLQIGDVPDGYKATRTTQEDFFLLLELASPSQTSLYFCASSDGTGHEQYFGPGTRLTVL
chain 3: not shown
chain 4: B1 chain 4
chain 5: SIINFEKL
B3: H2-Kb / E8 (parent)
chain 1: GDSVTQTEGLVTVTEGLPVKLNCTYQTTYLTIAFFWYVQYLNEAPQVLLKSSTDNKRTEHQGFHATLHKSSSSFHLQKSSAQLSDSALYYCALNTNTGKLTFGDGTVLTVKP
chain 2: EAAVTQSPRNKVAVTGGKVTLSCNQTNNHNNMYWYRQDTGHGLRLIHYSYGAGSTEKGDIPDGYKASRPSQENFSLILELATPSQTSVYFCASGDWGAGTGQLYFGEGSKLTVL
chain 3: not shown
chain 4: B1 chain 4
chain 5: SIINFEKL

Variants of: B1
Test: % of reporter cells activated (NFAT-GFP), raw
Conditions: with E9; scale: % of reporter cells activated
Further: test concentration or dose not given here.

| Variant | ratio to parent |
| --- | --- |
| chain 5 N4K | 2.4 |
| chain 5 I3W | 1.74 |

Variants of: B2
Test: % of reporter cells activated (NFAT-GFP), raw
Conditions: with B13; scale: % of reporter cells activated

| Variant | ratio to parent |
| --- | --- |
| chain 5 S1R | 6.17 |
| chain 5 S1K | 0.64 |
| chain 5 S1H | 0.0963 |
| chain 5 S1G | 0.236 |
| chain 5 S1V | 0.857 |
| chain 5 S1Q | 0.392 |
| chain 5 S1D | 0.113 |
| chain 5 S1Y | 0.11 |
| chain 5 S1A | 0.835 |
| chain 5 S1I | 0.381 |
| chain 5 S1W | 1.35 |
| chain 5 S1F | 0.0232 |
| chain 5 S1E | 0.113 |
| chain 5 S1M | 1.15 |
| chain 5 S1N | 0.0976 |
| chain 5 S1T | 0.544 |
| chain 5 S1P | 0.139 |
| chain 5 S1L | 0.112 |
| chain 5 S1C | 0.0621 |
| chain 5 L8E | 2.13 |
| chain 5 L8W | 0.423 |
| chain 5 L8Y | 0.812 |
| chain 5 L8N | 3 |
| chain 5 L8F | 0.189 |
| chain 5 L8T | 0.331 |
| chain 5 L8V | 0.393 |

| Variant | ratio to parent |
| --- | --- |
| chain 5 L8S | 2.06 |
| chain 5 L8M | 0.471 |
| chain 5 L8I | 0.992 |
| chain 5 L8Q | 0.247 |
| chain 5 L8R | 1.98 |
| chain 5 L8P | 2.29 |
| chain 5 L8C | 3.32 |
| chain 5 L8A | 0.227 |
| chain 5 L8D | 2.32 |
| chain 5 L8G | 1.21 |
| chain 5 L8K | 0.45 |
| chain 5 L8H | 0.954 |
| chain 5 I2Y | 2.07 |
| chain 5 I2D | 0.523 |
| chain 5 I2C | 1.49 |
| chain 5 I2H | 1 |
| chain 5 I2G | 0.284 |
| chain 5 I2W | 2.33 |
| chain 5 I2A | 1.04 |
| chain 5 I2T | 1.09 |
| chain 5 I2F | 1.01 |
| chain 5 I2P | 0.285 |
| chain 5 I2E | 0.75 |
| chain 5 I2L | 1.48 |
| chain 5 I2M | 0.411 |
| chain 5 I2N | 0.347 |

| Variant | ratio to parent |
| --- | --- |
| chain 5 I2Q | 0.243 |
| chain 5 I2R | 1.49 |
| chain 5 I2K | 1.84 |
| chain 5 I2V | 1.98 |
| chain 5 I2S | 0.848 |
| chain 5 E6P | 0.101 |
| chain 5 E6A | 0.0525 |
| chain 5 E6H | 0.0361 |
| chain 5 E6N | 0.0224 |
| chain 5 E6C | 0.0215 |
| chain 5 E6I | 0.0222 |
| chain 5 E6F | 0.0355 |
| chain 5 E6D | 0.0608 |
| chain 5 E6V | 0.038 |
| chain 5 E6G | 0.0583 |
| chain 5 E6Q | 0.0298 |
| chain 5 E6M | 0.0342 |
| chain 5 E6L | 0.0292 |
| chain 5 E6Y | 0.0507 |
| chain 5 E6T | 0.0399 |
| chain 5 E6R | 0.024 |
| chain 5 E6S | 0.0411 |
| chain 5 E6K | 0.611 |
| chain 5 E6W | 0.0431 |
| chain 5 F5M | 0.316 |
| chain 5 F5C | 0.132 |

| Variant | ratio to parent |
| --- | --- |
| chain 5 F5I | 0.0887 |
| chain 5 F5H | 0.366 |
| chain 5 F5E | 0.0684 |
| chain 5 F5T | 0.195 |
| chain 5 F5Q | 0.0482 |
| chain 5 F5S | 0.0431 |
| chain 5 F5P | 0.144 |
| chain 5 F5G | 0.0418 |
| chain 5 F5A | 0.131 |
| chain 5 F5K | 0.15 |
| chain 5 F5D | 0.179 |
| chain 5 F5V | 0.331 |
| chain 5 F5Y | 0.712 |
| chain 5 F5R | 0.0811 |
| chain 5 F5L | 0.117 |
| chain 5 F5N | 0.0634 |
| chain 5 F5W | 0.0204 |
| chain 5 K7M | 4.28 |
| chain 5 K7T | 1.03 |
| chain 5 K7F | 1.21 |
| chain 5 K7W | 1.27 |
| chain 5 K7H | 0.431 |
| chain 5 K7P | 0.0545 |
| chain 5 K7S | 1.02 |
| chain 5 K7V | 2.07 |
| chain 5 K7E | 0.113 |

| Variant | ratio to parent |
| --- | --- |
| chain 5 K7L | 3.14 |
| chain 5 K7R | 0.987 |
| chain 5 K7A | 0.722 |
| chain 5 K7Q | 0.887 |
| chain 5 K7Y | 0.195 |
| chain 5 K7G | 0.471 |
| chain 5 K7N | 1.14 |
| chain 5 K7D | 0.108 |
| chain 5 K7I | 1.32 |
| chain 5 K7C | 1.38 |
| chain 5 N4F | 0.393 |
| chain 5 N4A | 0.052 |
| chain 5 N4K | 0.0279 |
| chain 5 N4L | 0.0811 |
| chain 5 N4H | 0.038 |
| chain 5 N4V | 0.0342 |
| chain 5 N4E | 0.156 |
| chain 5 N4G | 0.101 |
| chain 5 N4D | 0.0238 |
| chain 5 N4I | 0.179 |
| chain 5 N4W | 0.025 |
| chain 5 N4T | 0.0378 |
| chain 5 N4P | 0.0596 |
| chain 5 N4Y | 0.0196 |
| chain 5 N4R | 0.104 |
| chain 5 N4Q | 0.0444 |

| Variant | ratio to parent |
| --- | --- |
| chain 5 N4C | 0.0444 |
| chain 5 N4M | 0.0596 |
| chain 5 N4S | 0.0507 |
| chain 5 I3K | 0.422 |
| chain 5 I3A | 4.66 |
| chain 5 I3E | 4.51 |
| chain 5 I3G | 1.07 |
| chain 5 I3Q | 4.85 |
| chain 5 I3W | 0.293 |
| chain 5 I3H | 1.64 |
| chain 5 I3V | 2.29 |
| chain 5 I3R | 1.96 |
| chain 5 I3Y | 0.117 |
| chain 5 I3P | 5.54 |
| chain 5 I3T | 1.56 |
| chain 5 I3L | 2.17 |
| chain 5 I3F | 0.122 |
| chain 5 I3D | 0.0646 |
| chain 5 I3C | 5.34 |
| chain 5 I3S | 1.98 |
| chain 5 I3N | 1.58 |
| chain 5 I3M | 5.23 |

Variants of: B3
Test: % of reporter cells activated (NFAT-GFP), raw
Conditions: with E8; scale: % of reporter cells activated

| Variant | ratio to parent |
| --- | --- |
| chain 5 F5I | 0.735 |
| chain 5 F5L | 0.68 |
| chain 5 F5C | 1.41 |
| chain 5 F5E | 0.539 |
| chain 5 F5K | 0.557 |
| chain 5 F5A | 1.63 |
| chain 5 F5G | 1.93 |
| chain 5 F5D | 0.0471 |
| chain 5 F5H | 1.61 |
| chain 5 E6D | 0.546 |
| chain 5 E6F | 0.018 |
| chain 5 E6K | 0.03 |
| chain 5 E6R | 0.0462 |
